The MegaScale stability set (Tsuboyama et al. 2023)

B1: EEHEE_rd3_0130 (parent)
chain: TKIIVNGKTFTAPTEEEAQKIAEKLAKKAGLTVHKKNGTFELK

Variants of: B1
Test: folding stability dG (cDNA display proteolysis); higher = more stable
Conditions: PBS, room temperature
For TKIIVNGKTFTAPTEEEAQKIAYKLAKKAGLTVHKKNGTFELK, the “folding stability dG” value was 1.13 kcal/mol.
For TKIIVNGKTFTAPTEEEAQKIAHKLAKKAGLTVHKKNGTFELK, the “folding stability dG” value was 0.803 kcal/mol.
For TKIIVNGKTFTAPTEEEAQKIAWKLAKKAGLTVHKKNGTFELK, the “folding stability dG” value was 0.894 kcal/mol.
In the case of TKIIVNGKTFTAPTEEEAQKIAMKLAKKAGLTVHKKNGTFELK, the “folding stability dG” value is reported as 1.04 kcal/mol.
For TKIIVNGKTFTAPTEEEAQKIAFKLAKKAGLTVHKKNGTFELK, the “folding stability dG” value was 0.837 kcal/mol.
For TKIIVNGKTFTAPTEEEAQKIACKLAKKAGLTVHKKNGTFELK, the “folding stability dG” value was 1.52 kcal/mol.
With TKIIVNGKTFTAPTEEEAQKIALKLAKKAGLTVHKKNGTFELK the “folding stability dG” value was 0.894 kcal/mol.
For TKIIVNGKTFTAPTEEEAQKIASKLAKKAGLTVHKKNGTFELK, the “folding stability dG” value was 0.686 kcal/mol.
For TKIIVNGKTFTAPTEEEAQKIAIKLAKKAGLTVHKKNGTFELK, the “folding stability dG” value was 0.873 kcal/mol.
In the case of TKIIVNGKTFTAPTEEEAQKIAAKLAKKAGLTVHKKNGTFELK, the “folding stability dG” value is reported as 0.74 kcal/mol.
In the case of TKIIVNGKTFTAPTEEEAQKIANKLAKKAGLTVHKKNGTFELK, the “folding stability dG” value is reported as 0.832 kcal/mol.
In the case of TKIIVNGKTFTAPTEEEAQKIAKKLAKKAGLTVHKKNGTFELK, the “folding stability dG” value is reported as 0.602 kcal/mol.
For TKIIVNGKTFTAPTEEEAQKIAQKLAKKAGLTVHKKNGTFELK, the “folding stability dG” value was 0.752 kcal/mol.
For TKIIVNGKTFTAPTEEEAQKIADKLAKKAGLTVHKKNGTFELK, the “folding stability dG” value was 0.78 kcal/mol.
With TKIIVNGKTFTAPTEEEAQKIATKLAKKAGLTVHKKNGTFELK the “folding stability dG” value was 0.669 kcal/mol.
For TKIIVNGKTFTAPTEEEAQKIARKLAKKAGLTVHKKNGTFELK, the “folding stability dG” value was 0.794 kcal/mol.
With TKIIVNGKTFTAPTEEEAQKIAVKLAKKAGLTVHKKNGTFELK the “folding stability dG” value was 0.598 kcal/mol.
For TKIIVNGKTFTAPTEEEAQKIAGKLAKKAGLTVHKKNGTFELK, the “folding stability dG” value was 0.246 kcal/mol.
With TKIIVNGKTFTAPTEEEAQKIAENLAKKAGLTVHKKNGTFELK the “folding stability dG” value was 0.76 kcal/mol.
In the case of TKIIVNGKTFTAPTEEEAQKIAEYLAKKAGLTVHKKNGTFELK, the “folding stability dG” value is reported as 1.64 kcal/mol.
With TKIIVNGKTFTAPTEEEAQKIAEVLAKKAGLTVHKKNGTFELK the “folding stability dG” value was 0.829 kcal/mol.
With TKIIVNGKTFTAPTEEEAQKIAEWLAKKAGLTVHKKNGTFELK the “folding stability dG” value was 1.78 kcal/mol.
For TKIIVNGKTFTAPTEEEAQKIAELLAKKAGLTVHKKNGTFELK, the “folding stability dG” value was 1.11 kcal/mol.
In the case of TKIIVNGKTFTAPTEEEAQKIAEALAKKAGLTVHKKNGTFELK, the “folding stability dG” value is reported as 1.06 kcal/mol.
With TKIIVNGKTFTAPTEEEAQKIAETLAKKAGLTVHKKNGTFELK the “folding stability dG” value was 0.939 kcal/mol.
With TKIIVNGKTFTAPTEEEAQKIAERLAKKAGLTVHKKNGTFELK the “folding stability dG” value was 1.08 kcal/mol.
For TKIIVNGKTFTAPTEEEAQKIAEILAKKAGLTVHKKNGTFELK, the “folding stability dG” value was 0.99 kcal/mol.
With TKIIVNGKTFTAPTEEEAQKIAESLAKKAGLTVHKKNGTFELK the “folding stability dG” value was 0.873 kcal/mol.
With TKIIVNGKTFTAPTEEEAQKIAEMLAKKAGLTVHKKNGTFELK the “folding stability dG” value was 1.14 kcal/mol.
With TKIIVNGKTFTAPTEEEAQKIAEQLAKKAGLTVHKKNGTFELK the “folding stability dG” value was 0.873 kcal/mol.
For TKIIVNGKTFTAPTEEEAQKIAEHLAKKAGLTVHKKNGTFELK, the “folding stability dG” value was 0.996 kcal/mol.
For TKIIVNGKTFTAPTEEEAQKIAEFLAKKAGLTVHKKNGTFELK, the “folding stability dG” value was 1.47 kcal/mol.
With TKIIVNGKTFTAPTEEEAQKIAEDLAKKAGLTVHKKNGTFELK the “folding stability dG” value was 0.676 kcal/mol.
For TKIIVNGKTFTAPTEEEAQKIAEGLAKKAGLTVHKKNGTFELK, the “folding stability dG” value was 0.617 kcal/mol.
With TKIIVNGKTFTAPTEEEAQKIAEELAKKAGLTVHKKNGTFELK the “folding stability dG” value was 0.799 kcal/mol.
With TKIIVNGKTFTAPTEEEAQKIAEKLQKKAGLTVHKKNGTFELK the “folding stability dG” value was -0.508 kcal/mol.
In the case of TKIIVNGKTFTAPTEEEAQKIAEKLTKKAGLTVHKKNGTFELK, the “folding stability dG” value is reported as -0.552 kcal/mol.
With TKIIVNGKTFTAPTEEEAQKIAEKLEKKAGLTVHKKNGTFELK the “folding stability dG” value was -0.437 kcal/mol.
For TKIIVNGKTFTAPTEEEAQKIAEKLHKKAGLTVHKKNGTFELK, the “folding stability dG” value was -0.447 kcal/mol.
With TKIIVNGKTFTAPTEEEAQKIAEKLDKKAGLTVHKKNGTFELK the “folding stability dG” value was -0.815 kcal/mol.
In the case of TKIIVNGKTFTAPTEEEAQKIAEKLRKKAGLTVHKKNGTFELK, the “folding stability dG” value is reported as -0.166 kcal/mol.
With TKIIVNGKTFTAPTEEEAQKIAEKLLKKAGLTVHKKNGTFELK the “folding stability dG” value was 0.094 kcal/mol.
In the case of TKIIVNGKTFTAPTEEEAQKIAEKLWKKAGLTVHKKNGTFELK, the “folding stability dG” value is reported as -0.138 kcal/mol.
With TKIIVNGKTFTAPTEEEAQKIAEKLIKKAGLTVHKKNGTFELK the “folding stability dG” value was -0.198 kcal/mol.
In the case of TKIIVNGKTFTAPTEEEAQKIAEKLMKKAGLTVHKKNGTFELK, the “folding stability dG” value is reported as -0.151 kcal/mol.
In the case of TKIIVNGKTFTAPTEEEAQKIAEKLVKKAGLTVHKKNGTFELK, the “folding stability dG” value is reported as -0.292 kcal/mol.
In the case of TKIIVNGKTFTAPTEEEAQKIAEKLFKKAGLTVHKKNGTFELK, the “folding stability dG” value is reported as 0.197 kcal/mol.
For TKIIVNGKTFTAPTEEEAQKIAEKLYKKAGLTVHKKNGTFELK, the “folding stability dG” value was -0.009 kcal/mol.
For TKIIVNGKTFTAPTEEEAQKIAEKLNKKAGLTVHKKNGTFELK, the “folding stability dG” value was -0.556 kcal/mol.
With TKIIVNGKTFTAPTEEEAQKIAEKLGKKAGLTVHKKNGTFELK the “folding stability dG” value was 0.163 kcal/mol.
With TKIIVNGKTFTAPTEEEAQKIAEKLCKKAGLTVHKKNGTFELK the “folding stability dG” value was 0.45 kcal/mol.
For TKIIVNGKTFTAPTEEEAQKIAEKLKKKAGLTVHKKNGTFELK, the “folding stability dG” value was -0.188 kcal/mol.
With TKIIVNGKTFTAPTEEEAQKIAEKLSKKAGLTVHKKNGTFELK the “folding stability dG” value was 0.1 kcal/mol.
In the case of TKIIVNGKTFTAPTEEEAQKIAEKAAKKAGLTVHKKNGTFELK, the “folding stability dG” value is reported as -0.68 kcal/mol.
In the case of TKIIVNGKTFTAPTEEEAQKIAEKFAKKAGLTVHKKNGTFELK, the “folding stability dG” value is reported as 0.651 kcal/mol.
In the case of TKIIVNGKTFTAPTEEEAQKIAEKDAKKAGLTVHKKNGTFELK, the “folding stability dG” value is reported as -0.802 kcal/mol.
For TKIIVNGKTFTAPTEEEAQKIAEKGAKKAGLTVHKKNGTFELK, the “folding stability dG” value was -0.493 kcal/mol.
With TKIIVNGKTFTAPTEEEAQKIAEKIAKKAGLTVHKKNGTFELK the “folding stability dG” value was 1.13 kcal/mol.
For TKIIVNGKTFTAPTEEEAQKIAEKEAKKAGLTVHKKNGTFELK, the “folding stability dG” value was -0.265 kcal/mol.
